Here are results for two substances from paper doi:10.1101/803833.

For this assay, the target named is human SNAP-tagged GLP-1R (glucagon-like peptide-1 receptor) on HEK293-SNAP-GLP-1R cells (human) (UniProt P43220). In words: FRET or BRET. A general note: BRET reads energy transfer from a luciferase to a nearby fluorophore.
Sequence of UniProt P43220 (P43220 24-463): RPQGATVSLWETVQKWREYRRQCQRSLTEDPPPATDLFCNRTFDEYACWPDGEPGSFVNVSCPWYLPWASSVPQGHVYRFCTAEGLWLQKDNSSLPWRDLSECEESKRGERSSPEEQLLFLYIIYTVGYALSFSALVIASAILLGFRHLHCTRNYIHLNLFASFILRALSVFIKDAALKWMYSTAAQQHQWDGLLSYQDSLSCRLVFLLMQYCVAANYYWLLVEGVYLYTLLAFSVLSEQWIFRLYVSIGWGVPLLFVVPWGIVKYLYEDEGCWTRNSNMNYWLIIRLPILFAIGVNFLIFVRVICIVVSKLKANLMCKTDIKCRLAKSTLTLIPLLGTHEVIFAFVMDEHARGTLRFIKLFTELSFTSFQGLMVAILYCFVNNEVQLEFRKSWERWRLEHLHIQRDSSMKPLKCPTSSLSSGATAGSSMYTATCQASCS

For lixisenatide (peptide), the log Kd is -9.

Turning to “exendin-4 (from UniProt P26349 48-87) (peptide)”, the log Kd is -9.2.
